Measurements from the supplement of paper PMC11780869.

System: Bacillus subtilis
Experiment: cleaved RNA product abundance (RNA/gDNA barcode ratio) relative to median wild-type variant (ratio to wild type); higher = more accumulation of the downstream cleavage product
Protocol: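 MPRA in B. subtilis. Mutagenized RNase Y cleavage-site regions (9% mutation rate) were inserted into a barcoded reporter mRNA (truncated aprE or tetM). Cells were grown in LB at 37°C to OD600 0.3. The cleaved RNA isoform was gel-purified and its barcodes counted; the RNA:gDNA barcode ratio was normalised to the median wild-type variant, and the median over barcodes is reported per variant. The printed sequence is the variable window only; the reporter flanks are not printed.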

[1] = experiment (reporter, strain, medium): exp 4a: truncated aprE reporter, strain BJT201 with 2% xylose (RNase J1 expressed), cleavage site: cggR-gapA (positions -7 to +36 mutated)
[2] = experiment (reporter, strain, medium): exp 2b: truncated aprE reporter, strain BJT200, cleavage site: cggR-gapA (positions -7 to +36 mutated)
[3] = experiment (reporter, strain, medium): exp 8a: truncated aprE reporter, strain BJT201 with 2% xylose (RNase J1 expressed), cleavage site: glnRA (positions -5 to +31 mutated)

Sequence | cleaved RNA product abundance [1] | cleaved RNA product abundance [2] | cleaved RNA product abundance [3] | other results
ACAGACGAAGGAGCCGCAAAGAAGTTATTAAGGGATGAATGATCCATCAATATAAATATCTCTCACTTATTTAAA | 0.259 |  |  | 
ACAGACGAAGGAGCCGCAAAGAAGTTATTAAGTGATGAATAATCCCTCAATATAAATCTCTCTCACTTATTTAAA |  | 0.116 |  | 
CGACATGTCCCGCTTCTTTCATTAATCCGTTAGGAACTGTTTTTCTATATACATTTACCTTTTAAGAGGAGGAAT |  |  | 0.453 | 
CGACATGTCCCGCTTCTTTCATTAATCCGTTAGCAAATGTTTTGTTATATACATTTACCTTTTAAGAGGAGGAAT |  |  | 0.554 | 
ACAGACGAAGGAGCCGCAAAGAAGTTATTAAGGTATGAATAATCCCTGAATATAAATATCTCTCACTTATTTAAA | 0.0951 | 0.0773 |  | 
CGACATGTCCCGCTTCTTTCATTATTCCGTTAGCAACTGTTTTGCAATATACATTTACCTTTTAAGAGGAGGAAT |  |  | 0.626 | 
CGACATGTCCCGCTTCTTTCATTAATCCGTTAGCCACTGTTTTGCTATAAACATTTACCTTTTAAGAGGAGGAAT |  |  | 0.219 | 
ACAGACGAAGGAGCCGCAAAGAAGTTATTAAGGGATGAATAATTCCTCAATATAATTATCTCTCACTTATTTAAA | 0.254 | 0.298 |  | 
CGACATGTCCCGCTTCTTTCATTAATCAGTTAACAACTGTTTTGCTATATACATTTACCTTTTAAGAGGAGGAAT |  |  | 0.249 | 
ACAGACGAAGGAGCCGCAAAGAAATTATTAATGAATGAATAATCCCTCAATATAAATATCTCTCACTTATTTAAA | 0.152 |  |  | 
ACAGACGAAGGAGCCGCAAAGAAGTTATTAAAGGATGAATCATCCCTCAATATAAATATCTCTCACTTATTTAAA | 0.212 | 0.178 |  | 
ACAGACGAAGGAGCCGCAAAGAAGTTATTAAGTGATGAATAATCCCACAATATAAATATCTCTCACTTATTTAAA | 0.0805 | 0.0986 |  | 
ACAGACGAAGGAGCCGCAAAGAAGTTATTAAGCGATGTATAATCCCTCAATATAAATATCTCTCACTTATTTAAA | 0.08 |  |  | 
CGACATGTCCCGCTTCTTTCATTATTCCGTTAGCAACTGTTTTGCTATATACATATACCTTTTAAGAGGAGGAAT |  |  | 1.59 | 
ACAGACGAAGGAGCCGCAAAGAAGTTATTAAGTGATGAATAATCCTTCAATATAAATATCTCTCACTTATTTAAA | 0.145 | 0.112 |  | 
ACAGACGAAGGAGCCGCAAAAAAGTTATTACGGGATGAATAATCCCTCAATATAAATATCTCTCACTTATTTAAA | 0.364 | 0.329 |  | 
CGACATGTCCCGCTTCTTTCATTAATCCGTTAGTAACTTTTTTGCTATATACATTTACCTTTTAAGAGGAGGAAT |  |  | 0.636 | 
ACAGACGAAGGAGCCGCAAAGAAGTTATCAAGGGATTAATAATCCCTCAATATAAATATCTCTCACTTATTTAAA | 0.301 |  |  | 
CGACATGTCCCGCTTCTTTCATTAATCCGTTAGTAATTGTTTTGCTATATACATTTACCTTTTAAGAGGAGGAAT |  |  | 0.362 | 
CGACATGTCCCGCTTCTTTCATTAATCCGTTAGCAACTGTTTTACTATATACATTTACCCTTTAAGAGGAGGAAT |  |  | 0.921 | 
ACAGACGAAGGAGCCGCAAAGAAGTTATTAAGGGATGAATAATCCCTCAATATACATATCTCTCACTTATTTAAA | 0.838 | 0.933 |  | cleaved RNA product abundance (experiment (reporter, strain, medium): exp 6: tetM reporter, strain 168, cleavage site: cggR-gapA (positions -7 to +36 mutated)): 0.498

Sequence | cleaved RNA product abundance [1] | cleaved RNA product abundance [2] | cleaved RNA product abundance [3] | other results
ACAGACGAAGGAGCCGCAAATAAGTTATTAAGGGCTGAATAATCCCTCAATATAAATATCTCTCACTTATTTAAA | 0.627 |  |  | 
ACAGACGAAGGAGCCGCAAAGAAGTTATTAAGGGATGAATAATCCCTCAAAATAAACATCTCTCACTTATTTAAA | 0.316 |  |  | 
ACAGACGAAGGAGCCGCAAAGAAGTTATTAAGGGATGAATAATCCCTAAATATAAAAATCTCTCACTTATTTAAA | 0.622 | 0.46 |  | 
CGACATGTCCCGCTTCTTTCATTAATCCTTTCGCAACTGTTTTGCTATATACATTTACCTTTTAAGAGGAGGAAT |  |  | 0.299 | 
CGACATGTCCCGCTTCTTTCATTAATCAGTTAGCAACTGTTTTGCTATATAGATTTACCTTTTAAGAGGAGGAAT |  |  | 0.842 | 
ACAGACGAAGGAGCCGCAAAGAGCTTATTAAGGGATGAATAATCCCTCAATATAAATATCTCTCACTTATTTAAA | 0.743 |  |  | 
ACAGACGAAGGAGCCGCAAAGAATTTATTAACGGATGAATAATCCCTCAATATAAATATCTCTCACTTATTTAAA | 0.203 |  |  | 
CGACATGTCCCGCTTCTTTCATTACTCCGTTAGCAACTGTTTTGTTATATACATTTACCTTTTAAGAGGAGGAAT |  |  | 0.573 | 
ACAGACGAAGGAGCCGCAAAGAAGTTATTAAGGGATGAACAATCCGTCAATATAAATATCTCTCACTTATTTAAA | 0.109 |  |  | 
ACAGACGAAGGAGCCGCAAAGAAGTTAATAAGGGATCAATAATCCCTCAATATAAATATCTCTCACTTATTTAAA | 0.316 | 0.282 |  | 
CGACATGTCCCGCTTCTTTCATTAATCCGTTAGCAACTGTTTTGCTATATACATTCACCTTTTAAGAGGAGGAAT |  |  | 0.581 | 
ACAGACGAAGGAGCCGCAAACAAGTTATTAAGGGATGAATAATCCCACAATATAAATATCTCTCACTTATTTAAA | 0.255 | 0.109 |  | 
ACAGACGAAGGAGCCGCAAAGAAGTTATTAAAGGATGAGTAATCCCTCAATATAAATATCTCTCACTTATTTAAA | 0.202 |  |  | 
ACAGACGAAGGAGCCGCAAAGAATTTATTAAGGGATGAATAATCCCTCTATATAAATATCTCTCACTTATTTAAA | 0.543 | 0.363 |  | 
ACAGACGAAGGAGCCGCAAAGAACTTATTAAGGGATGAATTATCCCTCAATATAAATATCTCTCACTTATTTAAA | 0.31 | 0.284 |  | 
ACAGACGAAGGAGCCGCAAAGAAGTAATTAAGGGATGAAAAATCCCTCAATATAAATATCTCTCACTTATTTAAA | 0.272 | 0.163 |  | 
CGACATGTCCCGCTTCTTTCATTAATCCGTTAGCAACAGTTTTGCTATATACATATACCTTTTAAGAGGAGGAAT |  |  | 1.16 | 
ACAGACGAAGGAGCCGCAAAGACGTTATTAAGGGATGAATAATCCCTCAAAATAAATATCTCTCACTTATTTAAA |  | 0.31 |  | 
ACAGACGAAGGAGCCGCAAAGAAGTTATTAATGGATGAATAATCCCTCACTATAAATATCTCTCACTTATTTAAA |  | 0.0821 |  | 
ACAGACGAAGGAGCCGCAAAGTAGTTATTAAGGGATGAATAATCCCTGAATATAAATATCTCTCACTTATTTAAA | 0.524 | 0.409 |  | 
